# Measured values as given in the DeepSol protein solubility set.
# Experiment: soluble on expression in E. coli; label from the status in PepcDB or PDB records
row,Sequence,soluble on expression in E. coli
1,MAHHHHHHMPCNVSCSTSPNSVTGEPRFIMDFSMNKVAKYFRLLGYDTLCSRDVPQANLIPTACAEGRILVTCSRPLARSVQLHNQRVRTMRLGIAKAMTGAAHHVIAYDSDGESIYSEDSEEVDVELRCLFTQQWCSGEFKRAMIELIQQAGVTYDLNRVFRRCVTCNELLVTMEKEEVRGRVVAKIYEIYDEFTECPTCRKVFWGFDGVFAINYKSFRSLNLLRSLCICAGAPVEEERTRLNRLRCFRSFPRIAKVLIFSYLEDVDLANMTVVFPALRDLAEEVQASRQTGEPVRKMQLRKH,not soluble
2,MAHHHHHHMPFTEVYGVEQFRDIANDPTLTVVCFSAVWCGPCKTIEKDLDRLTYEFASVRFAKVDADNNTDIVSKCRVMQLPTFMLVRAGQMLGYVIGADLAQLKAKIREEANKS,soluble
3,MAHHHHHHMPHAGNKLVPIGCNMNDAAYPFRGEHRLANCINHGHSGVVKRIPTSIAMRISGSNLVIEEVKTPKGVELECELGVDGGIARPVSLQQASAFMVPSDGHNYNLIAAVKASGNPMKHYCKLTFNGSEGITVLRMRAPEGCSPDAVYIVADGRRLRPTAGWFRIPIHTKECALVANLPLDDAPPPPPPPPPPPPPPPSFSFTATPPLPPAPSGGLAEKTLEATTGAPWTAENVPELETRIHPPLIPNAGAVTLTEPVPAAMPSFVATAPGFSLQLTGENGSSVFGVGVAALPLSHRRAQTVQIVVSDAQGRVLLRQRSHVPSLEPAAVSLAVKDDGKGGLALSANPGSKITVGGVPQADPSATAVLPRVVPQRAVVEQPNADGSVSKATLDVAPTSEPAPVSAAVSKQLPQQPQAPALPEAWVKELSDALQNSNPEEQRHLLQRIYPSSIPGVTIVNFVRDQLTRQPPAISFTVSSNGLEAVQCPGCSVTAAVGNDPARQIPAFGSVALASGKSALLTATSTVRHSAVSACRVQIGVPSAVAFTSPTVSAYPPHAAAGPPMQAGPSADERADSDVVSRLVDCLLRHNLSAPLVARELDSMSTAPFSAQGRRMLSLLTSCLRSATASGAAAAMQAASTQAAAITHAAPEEIFFTCGPGYVDNIYTTQPQYQLFGAVDNQAPQGGAAARPDTCAGYSRG,not soluble
4,MAHHHHHHMPPSNVRKEEAELRQIAKQARLARKEVQQRERKQRQRERRAAAKNGEAATAAQQTAASSAMRTRGAIILPDEVQELRQRLMGDDAASAASAADSPARKTKKAAARKAARSPAKKSAGAAGASNHGAASSSTLVPTYHQEVHFKKKMFFVDVVLHHVPHQKIDISETNTNRLVVDTCGHTKKYRLVLPYPKGMLCDAAAATYEFENGILQCRLPIMDGAIPASLEAENAKMIEKMRQQRALRFRVTRDGDLTVRTRQALLTQAPAAQAALPEAKKAAAAQRGDDTDSDNEVVNAQAREAKGTEKMASPKSRKRTRDGDEEDSKETPQQTRSVSAKKAKGAAAAVNTLPTEAATASKPAAKKSKPDVFEAEHAKVMEAAKAAAAKVHLSMRERVKLAKAVQASREERLQTRSLRKERKEEQKQQSFHRILEEQKRQLLARASMQQPAPSPTAKVNASAKAVHFADE,soluble
5,MAHHHHHHMQGTGSAKSFLEKLKSGRTTSAAIDNNAPPDGDGVILRRVERQYASEPLSALGLKLTEDAEVLSTEVGSPAAKSNIPLHYMIIAVNNQFVGSRADFEDIAAQLLTLVIKLQSTAAMSELLANILNEEEKNFNENGDSCIDVNELLRTTPRYGFLSAEHPMFLRWNQRLQTQREARQLIRQATREAEEQQAKEALEALRRVADAEDEIQQQQAQQERQHQQMLRQGPETVNPSAPEAGARPGGEVLLKQVQDESTFGESNVNNEGFEESPEEASPEELLKLIGAEPVETEVVQHVDADEPTEVRFFINPTEEYALSNGTRVTISVKKRSGPIPKPPPGKPPKGIEKADDKQAQ,not soluble
6,MAHHHHHHMQPFQFVPQVDNKVNVVSMQPFQMYVPNHNMMVPQACPENIQQYHHQPIFFEPLPPIYVKNQLLPSPILVQMPTTVVVQNESQPAMVLSQPPSNIVVKNNPPTSVFVKQSNPNVVVKNEAPPNYVQSVEACQEGVVADMSRPMMTTLNKNIL,not soluble
7,MAHHHHHHMQRYLMNTSYLQGQLKSLYALHNKTVADYGELVQNLNEECTILCDVVPSYRISSTLENEDGGGQRKQKEVYNVQKLEHEILTQYTHFLQLLRKLSRKSHPEQQALGSRLCARLVKSSAPEFNHADALLSLAIDFANSKSVRVAQPCQTALSELLDDQKVSDTTEHIVGALLRIVRKRSYAMNPKLLNLLLHVRVAMVDVHREDLAEEKAKSKRLKKEDKELARQLQKSKARRDRAEIAAKQTRILHRIFVIYLRVIEASKTCSPVHQTKILAPTLEGLVKFAPLVNLELYQQLMEALKDLVKGGGTSRTRLRVGGTEGGSDGDNVDDKHEEETATSVTTRLHALVAVATLAQRDATATASEWRVDLSYFHEVLFRCLGEALELPSAESSSSAKMTREGEQEASNGDMDEVASQGSTSSAGSLSSQAFSIAQSMTQGTLVHQNASREWTFHVGLVLRAVDLLVLTQKHLPVARVTAILRRLIQATPLCPPHIAMSILALCHRIVLRYPLAGGVIVGGSDNVIAGRGAYNPEALQTASANADSSFTWELSLLSHSYHPTLRQVAETMCKHYHKVSKHQHGQAPIVTKQLDSLGPYEVIEEYDPSLGNLKPAAPLPTALKAEVRKRQREEAQAYEVA,not soluble
8,MAHHHHHHMQSVLPYTTNPAQIGSIEKLKLINPSSAAATGPYVNVRDPKLVVGGLLHNWDAEAAHALLNAPKSVQTWDLSWTEDETNWEERVHRCTYPEEVEDLLPAKWIGYRVQSDVDETLARVCKLCTALVDRLVSLSQGNNANVSTAKWRQRQALYDRLGAVMELLEASVGEAIPILKLKDPEFIQNCWRQMQDDERVEIISVLGTKEYD,soluble
9,MAHHHHHHMQTYHRHMTSSSNPVVIFVFDHQGSAVTDFWAPLLQSVSKGLDAFGIEVAHAPTSSEIGQQLLAAMNAGSGPIILFFQGVGDTPAEGGKGLKMPIAYDGNIDMAHIMSWGLSCISSSVTHRVHNDVDLARFFAQYPQYPALPHVLYFPSTSYTPGGYLALSQHFALDAVFGVVPNAFTAPNATHIAQRYNITSKDELPVLLVLHRSTADAGGGAGESDRVVRMPAAATSLSYREALAFLSTQITDTVAALVAKAESTQNQHFLEVAESRRVYMMGQLIERQHDIVEEERLQMAREPILVKDQAVWAKECVQLPKKHRCVAAFVDSAQDSAAKDNAVKVLSLVSVKLLEIMGREAQKVSLVVVDRQGSDAVREYFDVGHNGFPDVLFLSLDRPAKYYNFVGTFSAEGVTQFVASHDAQLTQKDVRGGHTFIPRMVPKLEEAVAVPRSGDEDKDDL,soluble
10,MAHHHHHHMRAQSDLSPSSVSELRSKLKGVRVEVGSLVSFRDEPAFEMVMRLNKRHNGNLVSAVLSKGNAACGLGGDASGSGEGIGEGRVMADRSRHVEELRMVFIPKAYGAFLEDEMQKWLDPFRGRGEANRTKRKRDEVDDNEVTDIDSDVDTDECDDADSFRSV,soluble
11,MAHHHHHHMRDRVSPGMRPYRNMCASSPCGRLSHWVVALLPLPLSGTRHLLLRIPITRTHTHTHAAHATDKSEVLSSVVAPPPPPGHAALTTVYFVLVVDVGTHLSLSLSMNRDGVEDGIYVNFFGFDGKAAMLACDMYGILPENLLYLPKKMFLQTGDESEQVLLVRYTMCERSRQGTFRTLLGAKSKLIAEGKVEALWEERRRVCQGAAPCPRFTEKQLEEAAAALDTDSESDEERQVDERGMRKPPPPLPPAPPFAPDGPRGEAAAEAAATENDESPTPVTDTPFSRAPDSEPLPPPPTQASSDAGGETRRGSGTTATNDNAALAVDAKRTTQQLPNDWTQYDVVNSLELPRAHKLCSQPPSIPQAYFPRLLETLSMEEKELAAAQKELSRYSKKSARRLRARQQERSNEPSAPGRSTSLPPLSSSPAHKPATTHLHQSVELRNRRELAAVHRVAQAHLRFLSERYEQGRSIDEKMEGVATLGTLEHMLKYQKSIGVAPEFEDRLQSKMVREESRAALQQQLRESEWERAYAIEEKAQHAQEVLERERERTKGIVAEALRTQRLITDWKQVAAHRQQETHLNGVLHRSAVRHAKADAYIETKRAATGMSRYYHDQQEVHRRQLRDTIRDMMISKKFSADGVADEDNDVVA,not soluble
12,MAHHHHHHMRISCSCLNKSLVSTAIPSDIIERAGTNLPGIPHKYRVCRAYRQWLKLAVLCPHSLLCELNEHAQMNERFVIIVRQKFREGEELRDPEEIAVAVQSCERSLAMFRFLAADGARRRFPEAKPRLNLHKMGFMEMAKINYTQMAKEYWNTYIMRRW,not soluble
13,MAHHHHHHMRKKGSGFIGGKLNLKIKKKKKNAKQEARHGEASHVDSVAKSGEAVQVKSDPSEHDGKKDGSEKIIKGTGRITTEKNTVRGVRTDFMAEIKEGYDIILENPSTFRNERRTVTSVLSNKTLLVHEEFTTDISTTCAFYIASGGKSGGKPVGQPADTPEAHIGVEYAKVFEQTSRQDQVEVREKTGLWSYRVVKKKVDGRLTNEEKLDMRVRSGRDKFCW,not soluble
14,MAHHHHHHMRPSLPKKVLAWIASYPSYFIVDDPTEKDPSKARIRRASDRQPLDVALELYRWIPEEGISEAALLTKLSEVHRDYVKRIGLRHIVDSLSEWLSFTEAPGGGGGGAEGEEKVLLLRRLQTEVELERAIHTEESKLASGDENSLPVQIEDAEMERRWPKLKYEGTMSQQQASVARAQQRRGRGDI,soluble
15,MAHHHHHHMRPVTRSPLLVAAVVVAATLCLNGDNAILSLSSGVRLAHANGPITKDQCFILNPQPTVTSCNAYLPPIVDLYGSLPYDTTPDYADCVKERCLCTGAATSTAIKTSGFFCNSSGWMESGYTTCNVLVDCFSKFWRCINRALYMRYLTDRENLDSGEVDLITDLISHGSHPGEPFDITDTFRSCRLMMCAAANSRQNCGLVTCLPNYTQCDEYIRPPPLPYTHPLCTQGCRAALLMMALTIAAVSFSACCFCCCPAQVRISEPVLMEEVPAHKVELSSMRSEVEAQARRHRTNDPYTQ,not soluble
16,MAHHHHHHMRSGPCPLPPAVAARSLLSPFGIGVSKRLALVGSGNSITALLVKENVPAGTPLLLAPDAALLTCQGALDADVDGLVPPPAEMLELLKRDTAQLDHVYLAYYLSLRCFTNTEDWFSSQIHRFKDSGSASQEDTASSRIWERFAQKYVTAPAPVFMAALQYVWESCFRKPATEADSASAPLPAALAVAPVVDVASQSRNATNSALTATTAKALKETHLHSDITGARQALLAKNDAYVYWVLTAITDIPVGGEVSVSSESVL,soluble
17,MAHHHHHHMRTAVGSGAGASAAARAIPTAVPLTVADIDALARRDGVVSSDAVVSQQGTVASSRSVAELQAVVQSLQQENAELRERLERDRRQMLRSAMDVRDLHASQKQIRQRDLDRIEWLYCDNQRLRKILEMQGSAQELAGVLSPQPPAAAPATAHRPSLEGLRPLPEVPVELNAIEEEMPALEAEVVHLRGALVLKTQHLDDLWGHAERAEGYVQDLLQKLEHVQGIVREESDSCARRSKHLESTDQPLEDIVSFVSLRDHSSATQLTGPSSTTPFPFATVGRCEHIKRAAAVHGG,not soluble
18,MAHHHHHHMSDSEWSSDSGVSNAEAIAAASLNKHLGELMTLQHPSRVTHRRPAYATSEGTTASSATISHTPRVSGEAPRKQARMDISSLIRQALSQSSAHCTSANVDEVAGRVVAALRQKAGGAEVARAVTRALADPLNEELRESVLSGLLRPEELVALDEVSLLNQAERSVLAKARRERLNQHSVEYLERLNLTVTNMLTCPECRSHECYANFRFTDFVKWQGDDQTPTLQRCCRCSVSFCNERGKRAASAPGACLCAWVAVKVLSATTASRPCIHPSSNRHRTARRGSTRETGKISRFSSCRTRHHFCQKR,not soluble
19,MAHHHHHHMSEQILFDNFPLTFLNKDASEDYEDKNEKTYREKIKNIIEDLKSLRIEINEKYSIRSMLEEKLTLLQKEEQTKENNMKYIMNFSEHNIYEREVLNYQKNIAHLKKQIQTSNSKIKLLLEKEFKVRKQLQINYMNLYDILNERIEYIVENYVKHRKCSCAIYAYKQEKKEE,not soluble
